Measured values: doi:10.1101/2020.10.21.349480 (2020)

Legend:
mouse collagen I [1] = biological target: T1, mouse collagen I (mouse, UniProt P11087 152-1207; Q01149 86-1125); assay: BLI; analysis by molarity
rat collagen III [2] = biological target: T2, rat collagen III (rat, UniProt P13941 155-1218); assay: BLI; analysis by molarity
T2 chain: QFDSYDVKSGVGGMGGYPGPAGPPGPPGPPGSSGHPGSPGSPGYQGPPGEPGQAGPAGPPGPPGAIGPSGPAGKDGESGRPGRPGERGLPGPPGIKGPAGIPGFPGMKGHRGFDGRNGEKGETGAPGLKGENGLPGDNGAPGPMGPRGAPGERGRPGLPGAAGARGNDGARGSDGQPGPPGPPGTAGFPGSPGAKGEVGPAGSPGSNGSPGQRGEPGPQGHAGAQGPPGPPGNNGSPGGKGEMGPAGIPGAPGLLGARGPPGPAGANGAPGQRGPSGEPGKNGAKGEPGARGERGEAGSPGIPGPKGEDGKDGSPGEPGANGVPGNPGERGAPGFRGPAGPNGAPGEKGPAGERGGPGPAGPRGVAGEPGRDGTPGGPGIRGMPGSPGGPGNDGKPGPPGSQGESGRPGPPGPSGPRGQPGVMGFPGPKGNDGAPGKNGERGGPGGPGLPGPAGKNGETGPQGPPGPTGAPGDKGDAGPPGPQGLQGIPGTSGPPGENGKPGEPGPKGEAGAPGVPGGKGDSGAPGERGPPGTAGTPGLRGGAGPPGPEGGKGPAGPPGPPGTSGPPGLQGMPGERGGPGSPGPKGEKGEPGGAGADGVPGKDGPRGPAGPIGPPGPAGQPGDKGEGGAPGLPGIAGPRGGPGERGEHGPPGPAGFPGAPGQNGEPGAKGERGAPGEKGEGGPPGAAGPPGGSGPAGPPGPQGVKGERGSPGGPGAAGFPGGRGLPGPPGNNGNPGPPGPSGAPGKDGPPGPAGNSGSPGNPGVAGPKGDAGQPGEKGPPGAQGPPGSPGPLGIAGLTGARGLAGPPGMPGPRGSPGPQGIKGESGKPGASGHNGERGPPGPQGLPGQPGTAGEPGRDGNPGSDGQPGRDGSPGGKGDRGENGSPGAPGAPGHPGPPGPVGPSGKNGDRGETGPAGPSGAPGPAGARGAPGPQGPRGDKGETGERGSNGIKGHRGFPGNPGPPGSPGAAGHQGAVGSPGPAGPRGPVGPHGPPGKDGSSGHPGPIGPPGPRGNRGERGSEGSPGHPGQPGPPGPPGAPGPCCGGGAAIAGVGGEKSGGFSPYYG

rat collagen I [3] = biological target: T3, rat collagen I (rat, UniProt P02454 152-1207; P02466 86-1125); assay: BLI; analysis by molarity
T3 sequence (P02454 152-1207, chain 1 of 2): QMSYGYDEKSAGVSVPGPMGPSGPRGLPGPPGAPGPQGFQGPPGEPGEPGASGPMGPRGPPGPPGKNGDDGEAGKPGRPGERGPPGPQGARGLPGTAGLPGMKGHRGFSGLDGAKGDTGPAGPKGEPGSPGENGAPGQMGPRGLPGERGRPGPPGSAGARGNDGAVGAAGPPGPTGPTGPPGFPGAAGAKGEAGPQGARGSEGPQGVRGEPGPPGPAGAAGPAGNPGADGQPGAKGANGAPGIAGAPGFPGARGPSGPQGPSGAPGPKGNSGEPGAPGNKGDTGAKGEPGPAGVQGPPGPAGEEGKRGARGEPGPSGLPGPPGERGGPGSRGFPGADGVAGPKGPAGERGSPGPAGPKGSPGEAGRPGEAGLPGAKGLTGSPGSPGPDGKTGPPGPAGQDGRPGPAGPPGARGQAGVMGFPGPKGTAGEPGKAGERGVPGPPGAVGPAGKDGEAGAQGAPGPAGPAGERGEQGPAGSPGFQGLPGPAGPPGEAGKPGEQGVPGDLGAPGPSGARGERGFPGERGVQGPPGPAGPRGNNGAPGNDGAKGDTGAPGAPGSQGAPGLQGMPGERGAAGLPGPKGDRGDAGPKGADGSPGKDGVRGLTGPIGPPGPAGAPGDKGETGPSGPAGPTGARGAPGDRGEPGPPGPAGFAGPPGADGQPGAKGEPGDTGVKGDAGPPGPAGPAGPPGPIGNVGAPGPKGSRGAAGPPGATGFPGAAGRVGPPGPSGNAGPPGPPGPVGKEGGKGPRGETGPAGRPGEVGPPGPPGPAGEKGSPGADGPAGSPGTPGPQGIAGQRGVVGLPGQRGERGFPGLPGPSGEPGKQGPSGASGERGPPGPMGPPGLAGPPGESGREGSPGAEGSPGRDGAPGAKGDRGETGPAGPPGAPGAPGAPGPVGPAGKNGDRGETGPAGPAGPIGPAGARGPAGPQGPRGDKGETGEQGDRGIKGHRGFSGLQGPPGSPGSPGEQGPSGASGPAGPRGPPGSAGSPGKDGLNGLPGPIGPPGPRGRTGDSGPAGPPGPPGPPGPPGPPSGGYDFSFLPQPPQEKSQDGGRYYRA
T3 sequence (P02466 86-1125, chain 2 of 2): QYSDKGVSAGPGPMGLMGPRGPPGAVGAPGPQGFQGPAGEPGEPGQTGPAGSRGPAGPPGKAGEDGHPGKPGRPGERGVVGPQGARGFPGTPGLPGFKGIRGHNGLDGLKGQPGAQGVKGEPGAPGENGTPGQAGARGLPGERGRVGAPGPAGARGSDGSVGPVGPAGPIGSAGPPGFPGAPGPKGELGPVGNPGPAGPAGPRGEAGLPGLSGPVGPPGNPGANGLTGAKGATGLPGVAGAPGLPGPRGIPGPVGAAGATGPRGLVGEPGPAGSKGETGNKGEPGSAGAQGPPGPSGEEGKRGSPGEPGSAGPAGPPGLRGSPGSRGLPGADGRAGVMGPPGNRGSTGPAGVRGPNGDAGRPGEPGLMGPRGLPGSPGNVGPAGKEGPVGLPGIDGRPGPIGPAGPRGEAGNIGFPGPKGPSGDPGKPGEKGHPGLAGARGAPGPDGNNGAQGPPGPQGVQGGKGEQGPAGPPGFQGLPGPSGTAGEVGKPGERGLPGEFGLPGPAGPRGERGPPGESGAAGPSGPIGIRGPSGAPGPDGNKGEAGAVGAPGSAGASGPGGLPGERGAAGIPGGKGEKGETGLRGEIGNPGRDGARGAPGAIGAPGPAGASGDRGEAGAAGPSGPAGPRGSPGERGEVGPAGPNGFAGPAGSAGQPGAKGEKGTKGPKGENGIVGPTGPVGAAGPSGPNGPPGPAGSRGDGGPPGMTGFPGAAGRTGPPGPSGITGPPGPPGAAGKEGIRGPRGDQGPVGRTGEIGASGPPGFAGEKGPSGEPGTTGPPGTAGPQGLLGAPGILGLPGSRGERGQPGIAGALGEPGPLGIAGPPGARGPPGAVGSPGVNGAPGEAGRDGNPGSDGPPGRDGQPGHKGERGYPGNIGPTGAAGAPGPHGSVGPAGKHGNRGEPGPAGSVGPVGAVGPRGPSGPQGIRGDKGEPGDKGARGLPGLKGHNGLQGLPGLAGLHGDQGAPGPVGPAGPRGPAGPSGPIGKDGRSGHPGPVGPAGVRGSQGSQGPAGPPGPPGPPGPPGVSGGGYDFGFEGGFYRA

human collagen III [4] = biological target: T4, human collagen III (human, UniProt P02461 154-1221); assay: BLI; analysis by molarity
T4 chain: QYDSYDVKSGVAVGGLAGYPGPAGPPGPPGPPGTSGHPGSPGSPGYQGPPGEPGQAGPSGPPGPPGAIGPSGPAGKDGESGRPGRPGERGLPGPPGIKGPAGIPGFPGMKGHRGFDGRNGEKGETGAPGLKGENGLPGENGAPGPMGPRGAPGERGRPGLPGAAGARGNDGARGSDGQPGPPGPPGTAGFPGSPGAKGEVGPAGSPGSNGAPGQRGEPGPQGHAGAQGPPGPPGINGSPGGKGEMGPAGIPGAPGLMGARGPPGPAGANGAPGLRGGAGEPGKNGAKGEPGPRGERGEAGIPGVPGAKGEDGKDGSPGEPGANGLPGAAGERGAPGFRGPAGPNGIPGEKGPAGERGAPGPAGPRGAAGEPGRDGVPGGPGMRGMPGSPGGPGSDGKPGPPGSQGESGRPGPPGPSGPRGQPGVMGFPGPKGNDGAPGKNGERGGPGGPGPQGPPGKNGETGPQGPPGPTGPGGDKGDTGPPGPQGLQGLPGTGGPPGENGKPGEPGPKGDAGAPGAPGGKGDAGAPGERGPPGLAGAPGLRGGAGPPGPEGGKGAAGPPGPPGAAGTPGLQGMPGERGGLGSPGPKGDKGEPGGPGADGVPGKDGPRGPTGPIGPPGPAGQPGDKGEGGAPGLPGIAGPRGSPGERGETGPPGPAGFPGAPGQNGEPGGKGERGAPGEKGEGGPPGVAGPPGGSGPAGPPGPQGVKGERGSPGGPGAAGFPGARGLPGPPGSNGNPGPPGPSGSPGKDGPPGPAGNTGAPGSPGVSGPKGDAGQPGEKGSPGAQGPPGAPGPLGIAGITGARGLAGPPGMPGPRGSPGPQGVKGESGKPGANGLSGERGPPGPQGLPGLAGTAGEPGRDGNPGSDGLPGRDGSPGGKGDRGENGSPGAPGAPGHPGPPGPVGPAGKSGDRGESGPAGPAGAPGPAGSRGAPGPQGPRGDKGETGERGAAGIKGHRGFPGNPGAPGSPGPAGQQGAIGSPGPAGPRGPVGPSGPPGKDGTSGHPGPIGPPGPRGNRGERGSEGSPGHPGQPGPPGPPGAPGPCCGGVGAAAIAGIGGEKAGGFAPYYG

human collagen I [5] = biological target: T5, human collagen I (human, UniProt P02452 162-1218; P08123 80-1119); assay: BLI; analysis by molarity
mouse collagen I [6] = biological target: T1, mouse collagen I; assay: BLI; analysis by binding sites/mol
rat collagen III [7] = biological target: T2, rat collagen III; assay: BLI; analysis by binding sites/mol
rat collagen I [8] = biological target: T3, rat collagen I; assay: BLI; analysis by binding sites/mol
human collagen III [9] = biological target: T4, human collagen III; assay: BLI; analysis by binding sites/mol
human collagen I [10] = biological target: T5, human collagen I; assay: BLI; analysis by binding sites/mol
mouse collagen I [11] = biological target: T1, mouse collagen I; assay: BLI; apparent KD, analysis by binding sites/mol
rat collagen III [12] = biological target: T2, rat collagen III; assay: BLI; apparent KD, analysis by binding sites/mol
rat collagen I [13] = biological target: T3, rat collagen I; assay: BLI; apparent KD, analysis by binding sites/mol
human collagen III [14] = biological target: T4, human collagen III; assay: BLI; apparent KD, analysis by binding sites/mol
human collagen I [15] = biological target: T5, human collagen I; assay: BLI; apparent KD, analysis by binding sites/mol
mouse collagen I [16] = biological target: T1, mouse collagen I; assay: BLI; apparent KD (avidity), analysis by molarity
rat collagen III [17] = biological target: T2, rat collagen III; assay: BLI; apparent KD (avidity), analysis by molarity
rat collagen I [18] = biological target: T3, rat collagen I; assay: BLI; apparent KD (avidity), analysis by molarity
human collagen III [19] = biological target: T4, human collagen III; assay: BLI; apparent KD (avidity), analysis by molarity
human collagen I [20] = biological target: T5, human collagen I; assay: BLI; apparent KD (avidity), analysis by molarity

T1 sequence (P11087 152-1207, chain 1 of 2): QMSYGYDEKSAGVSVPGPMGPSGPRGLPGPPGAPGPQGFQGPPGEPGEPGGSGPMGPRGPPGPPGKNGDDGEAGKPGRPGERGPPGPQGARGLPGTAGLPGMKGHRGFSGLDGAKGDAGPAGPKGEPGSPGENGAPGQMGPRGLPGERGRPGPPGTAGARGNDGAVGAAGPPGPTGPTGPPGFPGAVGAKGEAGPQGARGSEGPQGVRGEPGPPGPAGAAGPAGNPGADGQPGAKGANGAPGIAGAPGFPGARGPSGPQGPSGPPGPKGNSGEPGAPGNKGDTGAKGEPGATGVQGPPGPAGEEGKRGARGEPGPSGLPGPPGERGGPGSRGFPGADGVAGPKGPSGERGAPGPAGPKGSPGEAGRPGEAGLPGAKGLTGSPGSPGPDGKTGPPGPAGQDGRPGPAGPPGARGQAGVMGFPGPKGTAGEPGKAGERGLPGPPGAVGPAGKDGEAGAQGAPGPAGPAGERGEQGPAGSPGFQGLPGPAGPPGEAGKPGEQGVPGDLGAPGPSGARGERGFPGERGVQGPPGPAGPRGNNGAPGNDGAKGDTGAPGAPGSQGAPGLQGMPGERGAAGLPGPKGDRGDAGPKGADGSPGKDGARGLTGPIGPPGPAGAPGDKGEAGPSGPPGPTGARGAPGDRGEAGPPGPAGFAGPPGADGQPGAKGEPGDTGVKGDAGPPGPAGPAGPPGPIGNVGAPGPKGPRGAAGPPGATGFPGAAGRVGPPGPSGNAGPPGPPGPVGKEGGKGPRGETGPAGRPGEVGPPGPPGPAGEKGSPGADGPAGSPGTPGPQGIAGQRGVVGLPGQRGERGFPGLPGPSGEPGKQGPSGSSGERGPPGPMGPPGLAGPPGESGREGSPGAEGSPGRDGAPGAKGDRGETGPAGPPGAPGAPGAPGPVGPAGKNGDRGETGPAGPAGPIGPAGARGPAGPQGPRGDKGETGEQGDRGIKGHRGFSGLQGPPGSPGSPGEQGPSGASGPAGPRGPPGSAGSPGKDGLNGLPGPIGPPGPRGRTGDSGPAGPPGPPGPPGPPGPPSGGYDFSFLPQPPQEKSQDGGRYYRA
T1 sequence (Q01149 86-1125, chain 2 of 2): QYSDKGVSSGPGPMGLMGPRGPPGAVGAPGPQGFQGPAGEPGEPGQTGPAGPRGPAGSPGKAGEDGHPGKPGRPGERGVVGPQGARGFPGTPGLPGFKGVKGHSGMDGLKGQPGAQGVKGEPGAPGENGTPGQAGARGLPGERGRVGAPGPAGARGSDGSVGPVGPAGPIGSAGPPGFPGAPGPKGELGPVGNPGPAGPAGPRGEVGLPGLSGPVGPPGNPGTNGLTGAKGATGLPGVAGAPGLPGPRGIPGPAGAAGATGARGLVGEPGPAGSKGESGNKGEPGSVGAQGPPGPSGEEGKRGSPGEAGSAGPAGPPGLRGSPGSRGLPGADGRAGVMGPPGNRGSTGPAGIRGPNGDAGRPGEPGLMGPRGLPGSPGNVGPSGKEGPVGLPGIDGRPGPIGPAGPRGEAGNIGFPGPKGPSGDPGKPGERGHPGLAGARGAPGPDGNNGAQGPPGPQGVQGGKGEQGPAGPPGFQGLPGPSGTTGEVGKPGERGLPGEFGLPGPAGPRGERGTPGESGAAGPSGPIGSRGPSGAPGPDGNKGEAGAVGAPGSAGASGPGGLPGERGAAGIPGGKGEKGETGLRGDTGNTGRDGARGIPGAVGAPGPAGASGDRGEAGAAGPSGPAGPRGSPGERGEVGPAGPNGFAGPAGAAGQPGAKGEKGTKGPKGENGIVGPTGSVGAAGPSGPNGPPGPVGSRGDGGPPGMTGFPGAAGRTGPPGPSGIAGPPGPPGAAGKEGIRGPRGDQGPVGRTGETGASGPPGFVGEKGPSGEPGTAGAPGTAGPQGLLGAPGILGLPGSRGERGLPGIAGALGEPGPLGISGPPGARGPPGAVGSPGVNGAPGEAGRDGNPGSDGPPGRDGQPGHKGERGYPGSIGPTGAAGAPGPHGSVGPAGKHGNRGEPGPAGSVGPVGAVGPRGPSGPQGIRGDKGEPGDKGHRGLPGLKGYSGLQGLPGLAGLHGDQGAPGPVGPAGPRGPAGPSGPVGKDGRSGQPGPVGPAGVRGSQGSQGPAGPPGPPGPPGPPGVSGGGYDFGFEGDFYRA

koff (mouse collagen I [1]): 0.000194 s⁻¹
koff (rat collagen III [2]): 0.000433 s⁻¹
koff (rat collagen I [3]): 0.000241 s⁻¹
koff (human collagen III [4]): 0.000241 s⁻¹
koff (human collagen I [5]): 0.000186 s⁻¹
koff (mouse collagen I [6]): 0.000194 s⁻¹
koff (rat collagen III [7]): 0.000432 s⁻¹
koff (rat collagen I [8]): 0.000241 s⁻¹
koff (human collagen III [9]): 0.000241 s⁻¹
koff (human collagen I [10]): 0.000184 s⁻¹
Kd (mouse collagen I [11]): 12.5 nM
Kd (rat collagen III [12]): 115 nM
Kd (rat collagen I [13]): 3.74 nM
Kd (human collagen III [14]): 47 nM
Kd (human collagen I [15]): 17.2 nM
Kd (mouse collagen I [16]): 0.0918 nM
Kd (rat collagen III [17]): 0.878 nM
Kd (rat collagen I [18]): 0.0387 nM
Kd (human collagen III [19]): 0.51 nM
Kd (human collagen I [20]): 0.126 nM
B1: NC410, LAIR-2 human IgG1 Fc fusion protein (Fc fusion)
chain: QEGALPRPSISAEPGTVISPGSHVTFMCRGPVGVQTFRLEREDRAKYKDSYNVFRLGPSESEARFHIDSVSEGNAGLYRCLYYKPPGWSEHSDFLELLVKESSGGPDSPDTEPGSSAGTVPGTEASGFDAP
